In the DeepSol protein solubility set:

experiment: soluble on expression in E. coli; label from the status in PepcDB or PDB records

Sequence	soluble on expression in E. coli
MSRVPEPSVFLVVDEAKRKARERGVGLIDLSIGSTDLPPPEAPLKALAEALNDPTTYGYCLKSCTLPFLEEAARWYEGRYGVGLDPRREALALIGSQEGLAHLLLALTEPEDLLLLPEVAYPSYFGAARVASLRTFLIPLREDGLADLKAVPEGVWREAKVLLLNYPNNPTGAVADWGYFEEALGLARKHGLWLIHDNPYVDQVYEGEAPSPLALPGAKERVVELFSLSKSYNLAGFRLGFALGSEEALARLERVKGVIDFNQYAGVLRMGVEALKTPKEVVRGYARVYRERALGMAEALKGVLSLLPPRATMYLWGRLPEGVDDLEFGLRLVERGVALAPGRGFGPGGKGFVRIALVRPLEELLEAAKRIREALD	soluble
MLAAGMSRRMGFNKLLAPLCGKRVLWHVLELVARFEGVLEGAVVVTSGEVADVLRRERPPGRRGLFRVVVNREQWRGLSHSIRLGVEASPGARAYLFFNGDRPFVSKHTVARVLALYMARRPLIAAPMAGGAIAPPVVVDSRLRGELLRLSGDTGVRSLFGKYRDSLAVVEVDDPGLHLDVDTPEDLERASKMCSQLGGGPREKPLEHHHHHH	not soluble
GPGSMINWCEGCSNRNNNTQPELVLGNETFVTHGVAAPDKGSKYPLGGPFRLRESRTGNYITDKELFQDHWTLLYFGFSKCAEVCPSTLRFITDVMKACDEKLAGDKNLSTEAARLQAVFLSVDSRRDTPEVLEGFVSKYDPRVRGLTGTSKEIEQAARAWRVYYSSIDETDEEKSAREAKGVPMVGADDDTYQLDHSSAIYLVGVDGKLKDFFFKEMGVADAVGRLEVHLQDVYGFKDTRG	not soluble
MGSDKIHHHHHHMAKAKTQFICSNCGYTSARYLGRCPNCGQWNTLIEEKIVPEAVVNRKARISFDGRVAKPKKISEISGNELPRTRTGLRELNRVLGGGIVPGSLILIGGDPGIGKSTLMLQVSGQLAENGGSVLYVSGEESDNQIKLRADRLGVGSDSFIVYPETDMEQIKSIVQQIEPDYLVIDSVQTMQEPDLQSPIGSVAQIREVTANLMQIAKTNAITVFIVGHVTKDGSIAGPKILEHMVDTVLYFEGDANYKYRILRTVKNRFGSTNELGIFEMRDHGLREVANPSEIFLEERLAGATGSAITASMEGSRPILVEVQALVAPTVFGNAQRVTTGVDRNRVSQILAVLEKHANLLLQNQDAHVRITGGVKIDEPAADLAIALAVASSYHEKATNASDVFLGEVGLGGEVRSISLIEDRLKEIAKLGFKRAIVSKNNLAGIDLPKGLQVIGVSTLEEALKLGLDLNRASKQKGFADL	not soluble
MTEAAKKSTKKPVDDGNFDKEIISRWPDLELSQTRFMLNHPEVDSSVKEAKLEKLQETIKEFDMAPFYELVCADFKIVVDATQLAAMKAANQKKIDEITAEVEDAEKNLGESEVRQGLLRKFEYYCQIGDKDNALKAYTATYEKTVGMGYRIDVVFAMIRVGLFFLDHHLINKFITKAKELMEQGGDWERKNRLRSYEALYRMSVRDFAGAADLFLEAVPTFGSYELMTYENLILYTVITTTFALDRPDLRTKVIRCNEVQEQLTGGGLNGTLIPVREYLESYYDCHYDRFFIQLAALESERFKFDRYLSPHFNYYSRGMRHRAYEQFLTPYKTVRIDMMAKDFGVSRAFIDRELHRLIATGQLQCRIDAVNGVIEVNHRDSKNHLYKAVIKDGDILLNRIQKLARVINA	not soluble
GHHHHHHAIAENLYFQSDLFETSQIEKLLESLENYQPAFPDALVRYYLAKSGFQTDDIRAERLVALAAQKFVADVANDALNHVKLRQQSQATSKKSKENEVILTVEDLSKALEEYGVHLKKPPYYVDSPVVGVGSANLKKRKTEQVTSVKPEEKSLEGKEVFKEEPKEEDKELTQEPENV	soluble
MGHHHHHHSHVLPIYAYGHAVGKSVTGGYVYRGCESPNLNGLYIFGDFMSGRLMALQEDRKNKKWKKQDLCLGSTTSCAFPGLISTHSKFIISFAEDEAGELYFLATSYPSAYAPRGSIYKFVDPSRRAPPGKCKYKPVPVRTKSKRIPFRPLAKTVLDLLKEQSEKAARKSSSATLASGPAQGLSEKGSSKKLASPTSSKNTLRGPGTKKKARVGPHVRQGKRRKSLKSHSGRMRPSAEQKRAGRSLP	not soluble
MIIMEKGVVSDSYEVAIARNPHLAEYLSKYRNETGRSPSFLVNIDSSLKSLAHVDVIYPVGDPIFIHIYERGKERRYKPIEPLLKDDEFEFMDAILDIIMSRASDYPPAENEEEQEKNIEDVYKKTVSVGSNKIKRNSVTLEKPLYDKMLYNVKKEIIGLGPLEPLIRDSHIEDISGIGPEDVYIVHKIFGSMPTDITFGSMERLMRFSKRLSERVGRPVSDKRPIVDATLPDGSRLSIVYSTDISQRGPSFTIRKFSEIPLSILNLIKYNTMSYEEAAYLWLALEYGQSVFVCGETASGKTTVVNAIIPFIRPESKIFSAEDTPEIRAPQKAWQQLVTRESGAEESRVTLYDLLRTALRSRPNYIIVGEIRGAEGAMAFQAMQTGHPVISTFHASSVKKMIQRFTGNPINIPVTFMDNLNIVLIQQAVYVGGKFLRRTTSINEIEGYYEDLGGVATRAVFEWDPSTDRHMFRGMNNSYILEEKIAKTAGLVDTSLIYNELFRRARILKDLADQKILDYYQVYEKIKEFYEGALANGY	not soluble
MVFGFTKRDRRVPDLSRYDYYYQNHEDYNKSPQLSAAAASAASAASPDRTNYSRSHSLVSHAPSIPRQRSSVKSPGRRLSTSSAAPPTSRAAAKQYSQKTYSLRSQRSGEYHLHPPGYTTNGSRMNSMTSGANVRRNYGKNKSTAGNNNDSRANSITVKTTQVTDPSGRTQSITKKTIRKINGYEYVETTTTTKNLVPLGDSQRHFDEFSENYMLQDDDILEEQASDNIHDIIEENETDNEKPYSPVSESHLQDDSELNVEKPDFPLGSYFHHKYSTDVMPLEEESSLSNFSDALDYIPPTHQTSSKYIHNKRKQASTTRRKKRPPAVKNAEAEAKKPLTEAEMYLKALEVAKRNVYHTDAASDNASAPLGSNKSRKSRMGQKMTLRSSSDSPTATANLVKSNVEVQPKRFTSSFFSRNTKSAPHEVHNHSVSTHFKSNKAVDPVPEPKSANTGLTDKEMYDQALKIAQARYYNSHGIQPEAVDNSTTAAKPRQVGVSHLGSTGSIPPNEQHYLGDSEIPVQSEVHEYEPIPLQKTKTTGSSKNKFKTMFDKVLQFSQENYGYQHKKEQGEQTPVTRNAEESFPAASISEGVTTAKPSSNEGVMTNPVVTDSPSPLQQQIDSTTASSNGQSQGNVPTSAVASTTRTRSPELQDNLKSSSSLLQDQTPQRQEDATDPTTSSTNELSAAEPTMVTSTHATKTIQAQTQDPPTKHKKSSFFTKLFKKKSSR	soluble
PLLIGGLYPKNLEDRILIKLDQAPPYLLDGLVAVEDRDFYHHFGVSPKSIARAIWVNTSQGQMRQGGSTLTQQLVKNFYLTNERSLSRKLTEAMMAVLLEIHYSKQEILEAYLNEVFVGQDGQRAVHGFGLASQYFFSQPLSELKIHQVAMLVGLVKGPSFY	not soluble
MGSDKIHHHHHHMMAFITVKPEIKNNLANVAKELKIDEELLKSANRSAQKHQLYCPGYVIEEHSGKELQTIQDIKRFLQPRQLKLSDSWIEQEKIYDDSAVEKEIKKIIDVFPFVSCREIGRSVLGRPIWELKAGGEHAVKKVHMNASFHANEWITTSVLLKWFKEYCMSLCCNSPFFGFSPIKLFNSTSLSLVPLVNPDGVDLVLNGSEVMGARRDELERLNEHRPNFNEWKANINGVDLNKQFPSLWEIEKYRKPTAPSYRDFPGISPLTEPESIAMYRLITENPPDRLLALHTQGEEIYWGYKGLEPEESAAVIKEFEELSGNIYKGVRDIDSYAGFRDWFIHHYFKEGYTVELGKGQNPLPFQQFSHIYNATSGILWRALFFHE	not soluble
MHHHHHHSSGVDLGTENLYFQSMIAKSFYDLSAINLDGEKVDFNTFRGRAVLIENVASLCGTTTRDFTQLNELQCRFPRRLVVLGFPCNQFGHQENCQNEEILNSLKYVRPGGGYQPTFTLVQKCEVNGQNEHPVFAYLKDKLPYPYDDPFSLMTDPKLIIWSPVRRSDVAWNFEKFLIGPEGEPFRRYSRTFPTINIEPDIKRLLKV	soluble
MANLKSLPVGDKAPEVVHMVIEVPRGSGNKYEYDPDLGAIKLDRVLPGAQFYPGDYGFIPSTLAEDGDPLDGLVLSTYPLLPGVVVEVRVVGLLLMEDEKGGDAKVIGVVAEDQRLDHIQDIGDVPEGVKQEIQHFFETYKALEAKKGKWVKVTGWRDRKAALEEVRACIARYKG	soluble
MSLDAVDGVRLEEGDAIDWIVFDRPQAANSFSATLLEQFSALVKDRQANGAPVLGIRGSGRGFSSGMDLGEYNATSGPTSDVLRLSSYVERWLDLWRHPKPVIVAVHGYCIGVAAQLASFADILVVAEDAMISEPTIPIGGGFIAPTWVSHVGSRHAKEFAFLPGNRIDGRMAAAWGWANCAVPASEVIACCESLAQRMKLMPPAVLAMKKRSINRAMEAAGFHAAASAIAESDALLHLEPEVTAIRNRLRTEDLKAVVGSYAGESSQEIFQREGHHHHHH	soluble
MGSDKIHHHHHHAQTWENVHFNVDWQMNVPLNSNFADKFSGWGMNFEGKYDLTPYWAIGAFLNFHTNHRYVDRRTIPLTPTASLTTDQQQSAFQLPFGISVSYKLPDNRYVKPYFGVKSGAMYSQNSIYNNLVQWYERPWGFYVSPELGMDIHPVPYQRLGFHVAVYYSYATNKTDILTYSEDGRNSMGVRVGVCF	not soluble
MSLVTKGKSAQYIKDESAFEDFLIGSGLEEASLSLSSGEVRTGQDLRAVIDDALAIRTLINGLHTRYSRTVVEQAAIAGALNPDLFNDLGRANAMAETIARRLDLVAEDTERGWQGRTSTSNEGPGGYIMERTVRGVKESATLDMALLGSADARALDRYAARLGEEGHHHHHH	not soluble
MSLNKEFIMKFSLKSLLTIAAAASTLILAGCGEKAVDNNKVKIGVMAGAEAQVAEVAAKVAKEKYNLDVELVTFTDYVTPNAALDDGSIDANAFQHKPYLDKQIADRGYKLAIVGNTFVYPIAGYSKQIKSVDELQDGARIAVPNDPTNLGRSLLLLQQQGLLKLREDVGLLATVRDIVENPKKLEILELDAAQLPRSLDDVALSIINTTYASSINLTPEKDGIFVENKESPYVNILVAREANVNAENVQNFKKAYQTDEVAKAASEIFQGGAVKGWEGGSHHHHHH	soluble
MDTLPECPITNTASLLPHSGRMVLIDRITRYGDDFVEAGAQVSPNHILLLDDKLPYTAFIELMAQAVGAYAGIQARKNARSVRLGFLLGTRKLEIFAQSVPIGTHLLATAHMSIQDAGGMGVFDCELRWTDAPETSSETLPSDGILARASLNVYSPEHPAGTTDAVLEHHHHHH	not soluble
MFKNEDAKATGTSEMAPALVAAFGGKENITNLDACITRLRVSVADVSKVDQAGLKKLGAAGVVVAGSGVQAIFGTKSDNLKTEMDEYIRNFGSRSHHHHHH	soluble
MIIVSRAIVLHNTAYNDSYSIAHLFSRESGRVSYLIPRSSKRGKSGGSLRLLISPLNELEITAEHKQHRDLHFIKEAKLCSLHGRIQSDPVRNSIALFLAEFLYLILRLPEADTNLYDFVAFSIDKLEEMDGPMANFHLAFLFRLLVPLGLIPDLQFGGSVIPRWFDPADGRFVPNAPAHGRGIPPHQSTYLQLFSRITFDNMKAFRLSRAERRQVLDYLVDYYRFHLPPFPLLKTPDILSTLFD	not soluble
